The values that follow come from paper PMC9257651.

For test [1], the target named is C-terminally myc-tagged ClpP2 (ClpP2-2×myc) (L. monocytogenes (endogenous gene in L. monocytogenes EGD-e)). The test can be described thus: affinity purification with mass spectrometry.
For test [2], the target named is Full-length ClpP2 with a C-terminal Strep-tag II (tetradecamer, ClpP2_(14)) (L. monocytogenes). The test can be described thus: SEC + other: intact protein mass spectrometry.
For test [3], the target named is ClpP1 co-expressed with ClpP2 in E. coli (L. monocytogenes). In words: SEC. On the technique in general: SEC sorts molecules by how far they enter the pores of the column.
The target of test [4] is ClpP2 co-expressed with ClpP1 in E. coli (L. monocytogenes). In words: SEC.

Regarding “ClpP1, endogenous in L. monocytogenes (enzyme)”, the fold enrichment at 42 °C against 20 °C in test [1] amounted to 6 fold. The stoichiometry N is a count of units in the complex or per binding partner. “Full-length ClpP2 with a C-terminal Strep-tag II (tetradecamer, ClpP2_(14)) (enzyme)”: in test [2], the stoichiometry N came out at 14.

Take “ClpP1 co-expressed with ClpP2 in E. coli (enzyme)”: the stoichiometry N in test [3] was determined as 7.

Consider “ClpP1 with a C-terminal Strep-tag II (heptamer, ClpP1_(7)) (enzyme)”, for which the percent ClpP1 in the tetradecamer peak (intact protein MS) in test [2] fell in the range of 47 to 49%. Regarding “ClpP2 co-expressed with ClpP1 in E. coli (enzyme)”, the stoichiometry N in test [4] is 14.
